According to IntAct's records for PubMed 20477991:

B1: Phospholipid-transporting ATPase NEO1 (Saccharomyces cerevisiae), P40527 (parent)
chain: MPNPPSFKSHKQNLFNSNNNQHANSVDSFDLHLDDSFDAALDSLQINNNPEPLSKHNTVGDRESFEMRTVDDLDNFSNHSSDSHRKSSNTDTHPLMYDNRLSQDDNFKFTNIASSPPSSSNNIFSKALSYLKVSNTKNWSKFGSPIELSDQHIEREIHPDTTPVYDRNRYVSNELSNAKYNAVTFVPTLLYEQFKFFYNLYFLVVALSQAVPALRIGYLSSYIVPLAFVLTVTMAKEAIDDIQRRRRDRESNNELYHVITRNRSIPSKDLKVGDLIKVHKGDRIPADLVLLQSSEPSGESFIKTDQLDGETDWKLRVACPLTQNLSENDLINRISITASAPEKSIHKFLGKVTYKDSTSNPLSVDNTLWANTVLASSGFCIACVVYTGRDTRQAMNTTTAKVKTGLLELEINSISKILCACVFALSILLVAFAGFHNDDWYIDILRYLILFSTIIPVSLRVNLDLAKSVYAHQIEHDKTIPETIVRTSTIPEDLGRIEYLLSDKTGTLTQNDMQLKKIHLGTVSYTSETLDIVSDYVQSLVSSKNDSLNNSKVALSTTRKDMSFRVRDMILTLAICHNVTPTFEDDELTYQAASPDEIAIVKFTESVGLSLFKRDRHSISLLHEHSGKTLNYEILQVFPFNSDSKRMGIIVRDEQLDEYWFMQKGADTVMSKIVESNDWLEEETGNMAREGLRTLVIGRKKLNKKIYEQFQKEYNDASLSMLNRDQQMSQVITKYLEHDLELLGLTGVEDKLQKDVKSSIELLRNAGIKIWMLTGDKVETARCVSISAKLISRGQYVHTITKVTRPEGAFNQLEYLKINRNACLLIDGESLGMFLKHYEQEFFDVVVHLPTVIACRCTPQQKADVALVIRKMTGKRVCCIGDGGNDVSMIQCADVGVGIVGKEGKQASLAADFSITQFCHLTELLLWHGRNSYKRSAKLAQFVMHRGLIIAICQAVYSICSLFEPIALYQGWLMVGYATCYTMAPVFSLTLDHDIEESLTKIYPELYKELTEGKSLSYKTFFVWVLLSLFQGSVIQLFSQAFTSLLDTDFTRMVAISFTALVVNELIMVALEIYTWNKTMLVTEIATLLFYIVSVPFLGDYFDLGYMTTVNYYAGLLVILLISIFPVWTAKAIYRRLHPPSYAKVQEFATP

Variants of: B1
Settings: with dop1_yeast DOP1, Q03921
Sequence of dop1_yeast DOP1, Q03921 (Q03921 whole entry): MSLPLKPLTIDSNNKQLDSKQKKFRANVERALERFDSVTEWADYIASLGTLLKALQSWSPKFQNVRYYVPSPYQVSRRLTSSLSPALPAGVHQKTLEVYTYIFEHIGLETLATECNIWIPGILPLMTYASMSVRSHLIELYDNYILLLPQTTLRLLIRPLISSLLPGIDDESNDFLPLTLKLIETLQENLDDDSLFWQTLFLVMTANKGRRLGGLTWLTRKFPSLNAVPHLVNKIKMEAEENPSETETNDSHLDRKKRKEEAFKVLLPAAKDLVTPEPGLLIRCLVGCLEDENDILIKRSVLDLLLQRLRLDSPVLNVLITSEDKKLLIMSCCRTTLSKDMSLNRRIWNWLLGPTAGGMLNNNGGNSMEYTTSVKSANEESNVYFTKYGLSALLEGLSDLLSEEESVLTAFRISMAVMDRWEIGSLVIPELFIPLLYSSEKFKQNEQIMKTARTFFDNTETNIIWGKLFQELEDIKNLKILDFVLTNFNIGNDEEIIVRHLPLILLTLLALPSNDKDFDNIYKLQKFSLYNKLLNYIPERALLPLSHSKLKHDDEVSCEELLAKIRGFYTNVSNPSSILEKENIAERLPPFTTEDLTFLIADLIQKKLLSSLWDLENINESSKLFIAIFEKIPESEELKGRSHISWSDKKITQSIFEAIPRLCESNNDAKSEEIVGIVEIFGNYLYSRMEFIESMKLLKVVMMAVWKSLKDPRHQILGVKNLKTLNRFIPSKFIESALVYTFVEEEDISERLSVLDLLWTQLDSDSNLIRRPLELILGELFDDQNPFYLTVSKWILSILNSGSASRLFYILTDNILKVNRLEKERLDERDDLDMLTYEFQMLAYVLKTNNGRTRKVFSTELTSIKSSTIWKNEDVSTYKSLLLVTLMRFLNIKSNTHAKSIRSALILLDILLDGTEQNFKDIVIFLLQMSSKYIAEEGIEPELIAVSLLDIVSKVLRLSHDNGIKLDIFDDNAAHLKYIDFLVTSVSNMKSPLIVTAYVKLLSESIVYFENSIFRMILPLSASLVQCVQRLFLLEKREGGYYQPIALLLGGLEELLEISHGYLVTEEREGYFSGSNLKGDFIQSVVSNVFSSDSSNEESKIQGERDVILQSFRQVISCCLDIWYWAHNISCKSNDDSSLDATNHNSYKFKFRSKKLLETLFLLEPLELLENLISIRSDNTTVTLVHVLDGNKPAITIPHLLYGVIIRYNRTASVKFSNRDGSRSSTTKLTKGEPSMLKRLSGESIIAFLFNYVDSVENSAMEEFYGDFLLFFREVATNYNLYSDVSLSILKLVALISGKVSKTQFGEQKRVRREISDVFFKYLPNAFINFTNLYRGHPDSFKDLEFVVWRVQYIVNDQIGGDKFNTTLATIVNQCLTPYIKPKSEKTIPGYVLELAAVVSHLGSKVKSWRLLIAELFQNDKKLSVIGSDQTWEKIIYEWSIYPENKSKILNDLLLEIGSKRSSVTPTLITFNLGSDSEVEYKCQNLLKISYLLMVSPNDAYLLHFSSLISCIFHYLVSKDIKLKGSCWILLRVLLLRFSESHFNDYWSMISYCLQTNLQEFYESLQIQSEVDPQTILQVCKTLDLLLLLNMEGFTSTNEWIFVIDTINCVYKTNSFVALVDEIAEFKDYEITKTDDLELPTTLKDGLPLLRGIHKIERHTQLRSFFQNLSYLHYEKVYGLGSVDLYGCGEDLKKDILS

| effect of a mutation on the interaction | Variant |
| --- | --- |
| decreasing interaction strength | F301S;D305G;V373A;S539P;L540P;N631S;Q655R;V748A |
| with no effect | I284T;I449M;E605G;L680P;Y714H |
